Measurements from publication PMC12440827 (Nature structural & molecular biology, 2025).

Molecular target: FIP200 N-terminal domain (1-640), untagged, of the ULK1C core (human, UniProt Q8TDY2 1-640)
Assay: cryo-EM structure; ULK1C (2:1:1) core, SEC peak in 25 mM HEPES pH 7.5, 150 mM NaCl, 1 mM MgCl2, 1 mM TCEP; graphene grids, 300 kV Titan Krios
Details: both partners purified

Sequence of FIP200 N-terminal domain (1-640), untagged, of the ULK1C core (Q8TDY2 1-640): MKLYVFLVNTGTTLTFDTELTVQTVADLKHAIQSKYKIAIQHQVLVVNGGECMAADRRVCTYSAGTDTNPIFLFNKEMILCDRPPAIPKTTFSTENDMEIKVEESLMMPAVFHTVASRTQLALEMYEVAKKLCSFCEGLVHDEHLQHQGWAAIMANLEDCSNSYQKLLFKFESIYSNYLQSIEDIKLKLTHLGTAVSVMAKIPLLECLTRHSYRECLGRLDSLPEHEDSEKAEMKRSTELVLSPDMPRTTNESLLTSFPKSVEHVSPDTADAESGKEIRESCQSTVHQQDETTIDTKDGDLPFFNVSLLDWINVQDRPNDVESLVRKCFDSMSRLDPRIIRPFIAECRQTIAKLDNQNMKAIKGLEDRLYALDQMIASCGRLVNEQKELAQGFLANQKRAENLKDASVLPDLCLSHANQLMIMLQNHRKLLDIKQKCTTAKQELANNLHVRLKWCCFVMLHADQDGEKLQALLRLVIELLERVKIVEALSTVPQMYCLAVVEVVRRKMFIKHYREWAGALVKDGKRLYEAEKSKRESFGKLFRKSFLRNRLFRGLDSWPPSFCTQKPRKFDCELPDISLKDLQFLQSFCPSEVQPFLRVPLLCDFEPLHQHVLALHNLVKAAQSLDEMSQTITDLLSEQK

- binding result: binds
B1: ATG13 (363-517), the ATG13 part of the ATG13-ULK1 fusion chain (domain or fragment, human, UniProt O75143 363-517, looked up)
chain: HDVLETIFVRKVGAFVNKPINQVTLTSLDIPFAMFAPKNLELEDTDPMVNPPDSPETESPLQGSLHSDGSSGGSSGNTHDDFVMIDFKPAFSKDDILPMDLGTFYREFQNPPQLSSLSIDIGAQSMAEDLDSLPEKLAVHEKNVREFDAFVETLQ
